Patent US20260242478A1 (published 2026)
Where no end group is shown, it is not given here.

B1: Phage-2948 (peptide)
peptide: FPHMCKPEWMCAGF
modifications: cysteine pairing not given here; also: peptide displayed as fusion to phage pIII
B2: Phage-2936 (peptide)
peptide: IDPMCKPLWMCAGF
modifications: cysteine pairing not given here; also: peptide displayed as fusion to phage pIII
notes: Peptide-180 library clone, tested as clonal phage (peptide fused to pIII)
B3: Phage-2944 (peptide)
peptide: LTPMCKPSWMCDGF
notes: as for B2
B4: Phage-2941 (peptide)
peptide: DVRMCKPSWMCIGL
notes: as for B2
B5: Phage-2946 (peptide)
peptide: EMRMCTPPWMCWGF
notes: as for B2
B6: Phage-2939 (peptide)
peptide: ISALCVPDWMCYGF
notes: as for B2
B7: Phage-2934 (peptide)
peptide: EFNWCRPLWMCVGF
modifications: cysteine pairing not given here; also: peptide displayed as fusion to phage pIII
notes: Peptide-180 library clone, tested as clonal phage (peptide fused to pIII of the bacteriophage)
B8: Phage-2940 (peptide)
peptide: FDKICVPTWMCTGF
notes: as for B2
B9: Phage-2937 (peptide)
peptide: VFPMCKPAWMCLGF
notes: as for B2
B10: Phage-2947 (peptide)
peptide: GDHLCRPSWMCVGF
notes: as for B2
B11: Phage-2938 (peptide)
peptide: HVPKCVPQWMCIGF
notes: as for B2
B12: Phage-2945 (peptide)
peptide: TVIKCIPAWMCDGF
notes: as for B2
B13: Phage-2923 (as printed at r2443/r2444; SEQ ID NO: 3238) (peptide)
peptide: VWPRCEPQWMCAGF
modifications: cysteine pairing not given here; also: peptide displayed as fusion to phage pIII
notes: tested as crude phage supernatant; The label 2923 is printed twice (r2444 and r2446); by the order this row is probably Phage-2922; also called probably Phage-2922
B14: Phage-2935 (peptide)
peptide: IHPVCKPDWMCAGF
modifications: cysteine pairing not given here; also: peptide fused to pIII
notes: as for B2
B15: Phage-2942 (peptide)
peptide: ELILCQPRWMCEGF
notes: as for B2
B16: Phage-2943 (peptide)
peptide: EGIYCRPAWMCEGF
notes: as for B2

How the values were obtained:
PSMA Fab (006 PSMA Fab) [1] = target: T1, PSMA Fab (006 PSMA Fab) (biotinylated (site not stated)); test: clonal phage ELISA on biotinylated PSMA Fab captured on neutravidin, anti-M13 HRP detection, competitor PSMA antigen
T1 construct: also called Anti-PSMA Fab

PSMA Fab (006 PSMA Fab) [2] = target: T1, PSMA Fab (006 PSMA Fab); test: clonal phage ELISA on biotinylated PSMA Fab captured on neutravidin, anti-M13 HRP detection, no PSMA antigen
Method: (§1) Clonal phage were harvested as crude supernatants and screened via standard ELISAs. […] Prior to the addition of clonal phage. wells were incubated with blocking buffer and PSMA antigen or blocking buffer alone. Without washing or aspirating, clonal phage supernatants were then added to the wells and incubated for a short time. Wells were then washed followed by detection of bound phage using a horse radish conjugated anti-M13 antibody.

PSMA Fab (006 PSMA Fab) [3] = target: T2, PSMA Fab (006 PSMA Fab); test: phage ELISA; clonal phage on plate-captured PSMA Fab pre-incubated with PSMA antigen as competitor, anti-M13 HRP detection
T2 construct: also called Anti-PSMA Fab; anti-PSMA Fab
Method: as §1

PSMA Fab (006 PSMA Fab) [4] = target: T2, PSMA Fab (006 PSMA Fab); test: phage ELISA; clonal phage supernatant on biotinylated PSMA Fab captured on neutravidin plate, anti-M13 HRP detection
Method: as §1

006 PSMA Fab [5] = target: T3, 006 PSMA Fab (biotinylated (site not stated)); test: clonal phage ELISA on captured PSMA Fab, wells pre-incubated with PSMA antigen as competitor
T3 construct: also called Anti-PSMA Fab

006 PSMA Fab [6] = target: T3, 006 PSMA Fab; test: clonal phage ELISA on biotinylated PSMA Fab captured on neutravidin, anti-M13-HRP detection;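 further: crude clonal phage supernatants added to wells preincubated with PSMA antigen in blocking buffer or with blocking buffer alone, brief binding period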
Method: as §1

Anti-PSMA Fab [7] = target: T4, Anti-PSMA Fab; test: phage ELISA; PSMA Fab on plate pre-incubated with PSMA antigen (competitor), anti-M13-HRP detection
T4 construct: Biotinylated and captured on neutravidin coated plates in the panning ELISA; also called 006 PSMA Fab
Method: as §1

Anti-PSMA Fab [8] = target: T4, Anti-PSMA Fab; test: phage ELISA; biotinylated PSMA Fab on neutravidin plate, clonal phage supernatant, anti-M13-HRP detection;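 further: wells were preincubated with blocking buffer containing PSMA antigen or with blocking buffer only, then phage supernatant was added without washing for a brief incubation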
Method: as §1

| Binder | Phage binding ELISA signal, Anti-PSMA Fab with PSMA antigen (PSMA Fab (006 PSMA Fab) [3]) | Phage binding ELISA signal, Anti-PSMA Fab (PSMA Fab (006 PSMA Fab) [4]) | Phage binding ELISA signal, Anti-PSMA Fab in presence of PSMA (006 PSMA Fab [5]) | Phage binding ELISA signal, Anti-PSMA Fab (006 PSMA Fab [6]) | further results |
| --- | --- | --- | --- | --- | --- |
| SSPICKPMWMCTGF [Phage-2950] |  |  |  |  | Phage binding ELISA signal, Anti-PSMA Fab with PSMA antigen (PSMA Fab (006 PSMA Fab) [1]): 0.0918; Phage binding ELISA signal, Anti-PSMA Fab (PSMA Fab (006 PSMA Fab) [2]): 2.28 |
| ISHMCKPVWMCSGL (tested as crude phage supernatant) [Phage-2921] | 0.125 | 2.31 |  |  |  |
| TQALCVPSWMCDGF (tested as crude phage supernatant) [Phage-2930] | 0.0747 | 2.3 |  |  |  |
| B1 |  |  |  |  | Phage binding ELISA signal, Anti-PSMA Fab with PSMA antigen (PSMA Fab (006 PSMA Fab) [1]): 0.0876; Phage binding ELISA signal, Anti-PSMA Fab (PSMA Fab (006 PSMA Fab) [2]): 2.28 |
| B2 |  |  | 0.145 | 2.29 |  |
| B3 |  |  | 0.105 | 2.28 |  |
| B4 |  |  | 0.0754 | 2.28 |  |
| VEQMCKPEWMCKGF (tested as crude phage supernatant) [Phage-2931] | 0.109 | 2.3 |  |  |  |
| B5 |  |  | 0.112 | 2.28 |  |
| B6 |  |  | 0.696 | 2.28 |  |
| B7 |  |  | 0.157 | 2.29 |  |
| B8 |  |  | 0.107 | 2.28 |  |
| B9 |  |  | 0.319 | 2.29 |  |
| VDRMCVPKWMCEGL (also called peptide-180 library clone) [Phage-2916] |  |  |  |  | Phage binding ELISA signal, Anti-PSMA Fab in presence of PSMA (Anti-PSMA Fab [7]): 0.0971; Phage binding ELISA signal, Anti-PSMA Fab (Anti-PSMA Fab [8]): 2.32 |
| B10 |  |  | 0.0649 | 2.28 |  |
| MHMLCRPAWMCSGF (tested as crude phage supernatant) [Phage-2932] | 0.21 | 2.29 |  |  |  |
| B11 |  |  | 0.202 | 2.29 |  |
| VDRMCKPTWMCEGF (tested as crude phage supernatant) [Phage-2926] | 0.12 | 2.31 |  |  |  |
| B12 |  |  | 0.09 | 2.28 |  |
| LAIMCRPAWMCSGF (tested as crude phage supernatant) [Phage-2920] | 0.112 | 2.31 |  |  |  |
| NIPHCVPAWMCIGF (tested as crude phage supernatant) [Phage-2929] | 0.109 | 2.31 |  |  |  |

| Binder | Phage binding ELISA signal, Anti-PSMA Fab with PSMA antigen (PSMA Fab (006 PSMA Fab) [3]) | Phage binding ELISA signal, Anti-PSMA Fab (PSMA Fab (006 PSMA Fab) [4]) | Phage binding ELISA signal, Anti-PSMA Fab in presence of PSMA (006 PSMA Fab [5]) | Phage binding ELISA signal, Anti-PSMA Fab (006 PSMA Fab [6]) | further results |
| --- | --- | --- | --- | --- | --- |
| EKPVCVPSWMCTGF (also called peptide-180 library clone) [Phage-2911] |  |  |  |  | Phage binding ELISA signal, Anti-PSMA Fab in presence of PSMA (Anti-PSMA Fab [7]): 0.098; Phage binding ELISA signal, Anti-PSMA Fab (Anti-PSMA Fab [8]): 2.33 |
| ENIMCEPMWMCIGF [Phage-2951] |  |  |  |  | Phage binding ELISA signal, Anti-PSMA Fab with PSMA antigen (PSMA Fab (006 PSMA Fab) [1]): 0.0839; Phage binding ELISA signal, Anti-PSMA Fab (PSMA Fab (006 PSMA Fab) [2]): 2.27 |
| WDHLCKPDWMCLGF [Phage-2949] |  |  |  |  | Phage binding ELISA signal, Anti-PSMA Fab with PSMA antigen (PSMA Fab (006 PSMA Fab) [1]): 0.0766; Phage binding ELISA signal, Anti-PSMA Fab (PSMA Fab (006 PSMA Fab) [2]): 2.28 |
| VDPMCIPRWMCSFL (also called peptide-180 library clone) [Phage-2919] |  |  |  |  | Phage binding ELISA signal, Anti-PSMA Fab in presence of PSMA (Anti-PSMA Fab [7]): 0.0867; Phage binding ELISA signal, Anti-PSMA Fab (Anti-PSMA Fab [8]): 2.32 |
| VGKMCVPEWMCHGF (tested as crude phage supernatant) [Phage-2924] | 0.082 | 2.31 |  |  |  |
| GERWCTPPWMCVGL (also called peptide-180 library clone) [Phage-2913] |  |  |  |  | Phage binding ELISA signal, Anti-PSMA Fab in presence of PSMA (Anti-PSMA Fab [7]): 0.116; Phage binding ELISA signal, Anti-PSMA Fab (Anti-PSMA Fab [8]): 2.32 |
| IKPFCVPEWMCVAL (tested as crude phage supernatant) [Phage-2927] | 0.121 | 2.31 |  |  |  |
| VERACVPVWMCEGF (tested as crude phage supernatant) [Phage-2933] | 0.11 | 2.29 |  |  |  |
| B13 | 0.0854 | 2.31 |  |  |  |
| VPKMCTPPWMCWGF (tested as crude phage supernatant) [Phage-2923] | 0.0934 | 2.31 |  |  |  |
| B14 |  |  | 0.0823 | 2.29 |  |
| B15 |  |  | 0.0637 | 2.28 |  |
| GGLLCKPAWMCNWL (also called peptide-180 library clone) [Phage-2915] |  |  |  |  | Phage binding ELISA signal, Anti-PSMA Fab in presence of PSMA (Anti-PSMA Fab [7]): 0.116; Phage binding ELISA signal, Anti-PSMA Fab (Anti-PSMA Fab [8]): 2.32 |
| AVPLCMPKWMCTGF (also called peptide-180 library clone) [Phage-2910] |  |  |  |  | Phage binding ELISA signal, Anti-PSMA Fab in presence of PSMA (Anti-PSMA Fab [7]): 0.0971; Phage binding ELISA signal, Anti-PSMA Fab (Anti-PSMA Fab [8]): 2.33 |
| LDVLCKPTWMCMGF (also called peptide-180 library clone) [Phage-2917] |  |  |  |  | Phage binding ELISA signal, Anti-PSMA Fab in presence of PSMA (Anti-PSMA Fab [7]): 0.0821; Phage binding ELISA signal, Anti-PSMA Fab (Anti-PSMA Fab [8]): 2.32 |
| LPRICVPEWMCLGF (also called peptide-180 library clone) [Phage-2918] |  |  |  |  | Phage binding ELISA signal, Anti-PSMA Fab in presence of PSMA (Anti-PSMA Fab [7]): 0.0919; Phage binding ELISA signal, Anti-PSMA Fab (Anti-PSMA Fab [8]): 2.32 |
| GLALCKPEWMCIGF (also called peptide-180 library clone) [Phage-2914] |  |  |  |  | Phage binding ELISA signal, Anti-PSMA Fab in presence of PSMA (Anti-PSMA Fab [7]): 0.0815; Phage binding ELISA signal, Anti-PSMA Fab (Anti-PSMA Fab [8]): 2.32 |
| AVHYCQPSWMCTGF (also called peptide-180 library clone) [Phage-2912] |  |  |  |  | Phage binding ELISA signal, Anti-PSMA Fab in presence of PSMA (Anti-PSMA Fab [7]): 0.0814; Phage binding ELISA signal, Anti-PSMA Fab (Anti-PSMA Fab [8]): 2.33 |
| TPIFCVPAWMCSGF (tested as crude phage supernatant) [Phage-2925] | 0.0946 | 2.31 |  |  |  |
| IVPACKPVWMCDGF (tested as crude phage supernatant) [Phage-2928] | 0.11 | 2.31 |  |  |  |
| B16 |  |  | 0.0765 | 2.28 |  |
